Where two headings read alike, the source gives them in different places.
How the values were obtained:
human Claudin18.2 [1] = molecular target: human Claudin18.2 (human); experiment: cell-based or functional assay
human Claudin18.2 [2] = molecular target: T1, human Claudin18.2 (human); experiment: FACS, Claudin18.2-HEK293 cells
T1 construct: also called CLDN18.2
Experimental: (§1) The binding of chimeric antibodies to Claudin18.2 expressed on HEK293 cells was determine by FACS analysis. Briefly, HEK293 cells expressing human Claudin18.2 as prepared in the foregoing Example were harvested and incubated with anti-Claudin18.2 mAbs at 4° C. for 40 min, followed by fluorophore (iFluor 647)-labeled goat […] IgG (H+L) secondary antibodies at 4° C. for 0.5 hour. The samples were then analyzed by flow cytometry.

human Claudin18.2 [3] = molecular target: T1, human Claudin18.2; experiment: cell-based or functional assay; remark: listed apart in the source
human Claudin18.2 [4] = molecular target: T1, human Claudin18.2; experiment: FACS, Claudin18.2-HEK293 cells; remark: listed apart in the source
Experimental: as §1
After initial screening of cell binding with transfected supernatants, the binding pattern of chimeric and up to 3 humanized antibodies on Claudin18.2 expressed on HEK293 cells were plotted with antibody in 3× serial dilutions, starting concentration of 45 μg/ml, following the protocol described in Example 3.

Row | Binder | CDC % Relative activity (human Claudin18.2 [1]) [%] | CDC EC50 (human Claudin18.2 [1]) [µg/mL] | EC50 (human Claudin18.2 [2]) [nM] | ADCC % Relative activity (human Claudin18.2 [3]) [%] | ADCC EC50 (human Claudin18.2 [3]) [µg/mL] | EC50 (human Claudin18.2 [4]) [µg/mL] | Span (human Claudin18.2 [4])
1 | chimeric 194D3B2 (antibody, human IgG1, kappa, V domains shown, chimeric, human IgG1/kappa constant regions) VH: QAYLQQSGAELVRSGASVKMSCKASGYPFTSYNMHWVKQTPGQGLEWVGYIYPGNGGTNYNQKFRDKATLTADTSSSTAYMQISRLTSDDSAVYFCLTGRGFAYWGQGTLVTVSA VL: DIVMTQSPSSLIVTPGERVTMSCKSSQSLLNSGNQKNYLTWYQQKPGQPPKLLIYRASTRESGVPDRFTGSGSGTDFTLTISSVQAEDLAVYYCQNDYSYPLTFGIGTKLELKR | 793 | 0.34 | 0.796 | 83.6 | 0.0291 | – | –
2 | chimeric 252F1B10 (antibody, human IgG1, kappa, V domains shown, chimeric, human IgG1/kappa constant regions) VH: QAYLQQSGAELVRSGASVKMSCKASGYTFTSHNMHWVKQTPGQGLEWIGYIYPGNGGTNYNQKFKGKATLTADTSSSTAYMQINSLTSEDSAVYFCTRDYYGNSFAYWGQGTLVTVSA VL: DIVMTQSPSSLTEKAGERVSMSCKSSQSLFNSGNQKNYLTWYQQKPGQPPKLLIYWASTRESGVPDRFTGSGSGTDFTLTISSVQAEDLAVYYCQNDYRYPFTFGAGTKLELKR | 937 | 0.288 | 0.798 | 85.9 | 0.0357 | – | –
3 | chimeric 182D10F1 (antibody, human IgG1, kappa, V domains shown, chimeric, human IgG1/kappa constant regions) VH: QAYLQQSGAELVRSGASVKMSCKASGYTFSSYNMHWVKQTPGQGLEWIGYIYPGNGGTNYNQKFKGKATLTADTSSSTAYMQISSLTSEDSAVYFCLTGRGFTYWGQGTLVTVSA VL: DIVMTQSPSSLTVTAGEKVTMNCKSSQSLFNSGNQKNYLTWYQQKPGQPPKLLIYRASTRESGVPDRFTGSGSGTDFTLTISSVQAEDLAVYYCQNDYSYPLTFGVGTKLELKR | – | – | 1.3 | – | – | – | –
4 | chimeric 234B9D4 (antibody, human IgG1, kappa, V domains shown, chimeric, human IgG1/kappa constant regions) VH: EIQLQQSGPDLMKPGSSVKISCTASGYSFTSYYIHWVKQSHGKTLEWIGYIDPFNGGTRYNQKFEGKAALTVDKSSTTAYMHLTSLTSDDSAVYYCASLRFFTYWGQGTLVTVSA VL: DIVMTQSPSSLTVTAGEKVTMTCKSSQSLLNSGNQENYLTWYQQKPGQPPKLLISRASTRQSGVPDRFTGSGSGTDFTLTISSVQAEDLAVYYCQNDYSYPLTFGAGTKLELKR | – | – | 2.6 | – | – | – | –
5 | chimeric 203A6C9 (antibody, human IgG1, kappa, V domains shown, chimeric, human IgG1/kappa constant regions) VH: QVQLKQSGPGLVQPSQSLSITCTVSGFSLTRYGVHWVRQSPGKGLEWLGVIWSGGNTDYNAAFISRLNIRKDNSKSQVFFKMNSLKPNDTAIYYCARAAYFGNSFDYWGQGTTLTVSS VL: DIVMTQSPSSLPVTAGEKVTMSCKSSQSLLNSGNQKNYLTWYQQKPGQPPKLLIYWASTRDSGVPDRFTGSGSGTDFTLTISSVQAEDLAVYYCQNNYIYPLTFGAGTKLELKR | 1040 | 0.261 | 0.551 | 66.4 | 0.0367 | – | –
6 | chimeric 241H10A1 (antibody, human IgG1, kappa, V domains shown, chimeric, human IgG1/kappa constant regions) VH: QVQLQQSGAELVKPGASVKLSCKASGYTFTSFGINWLRQRPEQGLEWIGWIFPGDGNSKYNENFKGKATLTTDKSSSTAYMQVTRLTSEDSAVYFCARFYYGNSFANWGQGTLVTVSA VL: DIVMTQSPSSLTVTAGEKVTMSCKSSQSLLNSGNQKNYLTWYQQKPGQPPKLLIYWAATRESGVPDRFTGSGSGTDFTLTISSVQAEDLAVYYCQNDYFYPFTFGGGTKLELKR | – | – | 1.53 | – | – | – | –
7 | chimeric 250F4G4 (antibody, human IgG1, kappa, V domains shown, chimeric, human IgG1/kappa constant regions) VH: QAYLQQSGAELVRSGASVKMSCKASGYTFTSHNMHWVKQTPGQGLEWIGYIYPGNGRTNYNQKFKGKATLTADTSSSTAYMQISSLTSEDSAVYFCTRDYYGNSFAYWGQGTLVTVSA VL: DIVMTQSPSSLTEKVGERVSMSCKSSQSLFNSGNQKNYLTWYQQKPGQPPKLLIYWASTRESGVPDRFTGSGSGTDFTLTISSVQAEDLAVYYCQNDYWYPFTFGAGTKLELKR | 875 | 0.309 | 1.02 | 109 | 0.0281 | – | –
8 | chimeric 222B6G5 (antibody, human IgG1, kappa, V domains shown, chimeric, human IgG1/kappa constant regions) VH: QTYLQQSGAELVRSGASVKMSCKASGYTFTSYNIHWVKQTPGQGLEWIGYISPGNGGTYYNLKFKDKATLTTATSSSTAYMQISSLTSEDSAVYFCATGRGFAYWGQGTLVTVSA VL: DIVMTQSPSSLTVTPGEKVTMSCKSSQSLFNSGNQKNYLIWYQQKPGQPPKLLIYRASTRDSGVPDRFTGSGSGTDFTLTISNVQAEDLAVYYCQNDYSYPLTFGAGTKLELKR | 1320 | 0.205 | 0.61 | 131 | 0.0276 | – | –
9 | chimeric 201F4H6 (antibody, human IgG1, kappa, V domains shown, chimeric, human IgG1/kappa constant regions) VH: QVQLKESGPGLVAPSQSLSITCTVSGFSLTSYGVSWVRQPPGKGLECLGVIWAGGNTNYNSALMSRLSISKDKSKSQVFLKMNSLQTDDTAMYYCARVYYGNAMDYWGQGTSVTVSS VL: DIVMTQSPSSLTVTAGEKVTMSCKSSQSLLNSGNQKSYLTWYQQRPGQPPKLLIYWASTRESGVPDRFTGSGSGTDFTLTISSVQAEDLAVYFCQNVYFFPFTFGSGTKLETKR | – | – | 1.36 | – | – | – | –
10 | humanized 410H6H3-VH1 + VL1 (antibody, human IgG1, kappa, V domains shown, humanized, human IgG1/kappa constant regions) VH: EVQLVESGGGLVQPGGSLRLSCAASGFTFSSSGMHWVRQAPGKGLEWVSYISSGSNTIYYADTLKGRFTISRDNAKNSLYLQMNSLRAEDTAVYYCARIYYGNSFVYWGQGTLVTVSS VL: DIVMTQSPDSLAVSLGERATINCKSSQSLLNSGNQKNYLTWYQQKPGQPPKLLIYWASTRESGVPDRFSGSGSGTDFTLTISSLQAEDVAVYYCQNNYYYPLTFGQGTKLEIKR | – | – | – | – | – | 0.33 | 72100
11 | humanized 412B6E4-VH1.1 + VL1.1 (antibody, human IgG1, kappa, V domains shown, humanized, human IgG1/kappa constant regions) VH: EVQLVESGGGLVQPGGSLRLSCAASGFTFSSFGVHWVRQAPGKGLEWVAYISSGSSTIYYAHSVKGRFTISRDNAKNSLFLQMNSLRAEDTAVYYCARFYYGNSFAYWGQGTLVTVSS VL: DIVMTQSPDSLAVSLGERATMSCKSSQSLLNSGNQKNYLTWYQQKPGQPPKMLIYWASTRESGVPDRFSGSGSGTDFTLTISSLQAEDVAVYYCQNAYTYPLTFGQGTKLEIKR | – | – | – | – | – | 0.571 | 71300
12 | humanized 412B6E4-VH1 + VL1.1 (antibody, human IgG1, kappa, V domains shown, humanized, human IgG1/kappa constant regions) VH: EVQLVESGGGLVQPGGSLRLSCAASGFTFSSFGVHWVRQAPGKGLEWVSYISSGSSTIYYAHSVKGRFTISRDNAKNSLYLQMNSLRAEDTAVYYCARFYYGNSFAYWGQGTLVTVSS VL: DIVMTQSPDSLAVSLGERATMSCKSSQSLLNSGNQKNYLTWYQQKPGQPPKMLIYWASTRESGVPDRFSGSGSGTDFTLTISSLQAEDVAVYYCQNAYTYPLTFGQGTKLEIKR | – | – | – | – | – | 0.373 | 65900
13 | humanized 412B6E4-VH1.2 + VL1.1 (antibody, human IgG1, kappa, V domains shown, humanized, human IgG1/kappa constant regions) VH: EVQLVESGGGLVQPGGSRRLSCAASGFTFSSFGVHWVRQAPGKGLEWVSYISSGSSTIYYAHSVKGRFTISRDNAKNTLFLQMNSLRAEDTAVYYCARFYYGNSFAYWGQGTLVTVSS VL: DIVMTQSPDSLAVSLGERATMSCKSSQSLLNSGNQKNYLTWYQQKPGQPPKMLIYWASTRESGVPDRFSGSGSGTDFTLTISSLQAEDVAVYYCQNAYTYPLTFGQGTKLEIKR | – | – | – | – | – | 0.512 | 70300
14 | humanized 410H6H3-VH1.2 + VL1 (antibody, human IgG1, kappa, V domains shown, humanized, human IgG1/kappa constant regions) VH: EVQLVESGGGLVQPGGSRRLSCAASGFTFSSSGMHWVRQAPGKGLEWVSYISSGSNTIYYADTLKGRFTISRDNAKNTLFLQMNSLRAEDTAVYYCARIYYGNSFVYWGQGTLVTVSS VL: DIVMTQSPDSLAVSLGERATINCKSSQSLLNSGNQKNYLTWYQQKPGQPPKLLIYWASTRESGVPDRFSGSGSGTDFTLTISSLQAEDVAVYYCQNNYYYPLTFGQGTKLEIKR | – | – | – | – | – | 0.372 | 73000
